The source of these data is patent US20140363428A1 (Chugai, published 2014).

The Kd is the free concentration of one partner at which half of the binding sites on the other are occupied at equilibrium, for simple one-to-one binding. A low value points to higher affinity.

Sequences and labels used below:
B1: Fv-4-F1107 (antibody, human IgG1, kappa)
heavy: QVQLQESGPGLVKPSETLSLTCAVSGHSISHDHAWSWVRQPPGEGLEWIGFISYSGITNYNPSLQGRVTISRDNSKNTLYLQMNSLRAEDTAVYYCARSLARTTAMDYWGEGTLVTVSSASTKGPSVFPLAPSSKSTSGGTAALGCLVKDYFPEPVTVSWNSGALTSGVHTFPAVLQSSGLYSLSSVVTVPSSSLGTQTYICNVNHKPSNTKVDKKVEPKSCDKTHTCPPCPAPELLGGPSVFLFPPKPKDTLYISRTPEVTCVVVDVSHEDPEVKFNWYVDGVEVHNAKTKPREEQYNSTYRVVSVLTVLHQDWLNGKEYKCKVSNKALPAPIEKTISKAKGQPREPQVYTLPPSRDELTKNQVSLTCLVKGFYPSDIAVEWESNGQPENNYKTTPPVLDSDGSFFLYSKLTVDKSRWQQGNDFSCSVMHEALHYHVTQKSLSLSP
light: DIQMTQSPSSLSASVGDSVTITCQASTDISSHLNWYQQKPGKAPELLIYYGSHLLSGVPSRFSGSGSGTDFTFTISSLEAEDAATYYCGQGNRLPYTFGQGTKVEIERTVAAPSVFIFPPSDEQLKSGTASVVCLLNNFYPREAKVQWKVDNALQSGNSQESVTEQDSKDSTYSLSSTLTLSKADYEKHKVYACEVTHQGLSSPVTKSFNRGEC
B2: Fv-4-F1114 (antibody)
heavy: QVQLQESGPGLVKPSETLSLTCAVSGHSISHDHAWSWVRQPPGEGLEWIGFISYSGITNYNPSLQGRVTISRDNSKNTLYLQMNSLRAEDTAVYYCARSLARTTAMDYWGEGTLVTVSSASTKGPSVFPLAPSSKSTSGGTAALGCLVKDYFPEPVTVSWNSGALTSGVHTFPAVLQSSGLYSLSSVVTVPSSSLGTQTYICNVNHKPSNTKVDKKVEPKSCDKTHTCPPCPAPELLGGPSVFLFPPKPKDTLYISRTPEVTCVVVDVSHEDPEVKFNWYVDGVEVHNAKTKPREEQYNSTYRVVSVLTVLHQDWLNGKEYKCKVSNKALPAPIEKTISKAKGQPREPQVYTLPPSRDELTKNQVSLTCLVKGFYPSDIAVEWESNGQPENNYKTTPPVLDSDGSFFLYSKLTVDKSRWQQGNVFSCSVMHEALHYHVTQKQLSLSP
light: DIQMTQSPSSLSASVGDSVTITCQASTDISSHLNWYQQKPGKAPELLIYYGSHLLSGVPSRFSGSGSGTDFTFTISSLEAEDAATYYCGQGNRLPYTFGQGTKVEIERTVAAPSVFIFPPSDEQLKSGTASVVCLLNNFYPREAKVQWKVDNALQSGNSQESVTEQDSKDSTYSLSSTLTLSKADYEKHKVYACEVTHQGLSSPVTKSFNRGEC
B3: Fv-4-F1108 (antibody, human IgG1, kappa)
heavy: QVQLQESGPGLVKPSETLSLTCAVSGHSISHDHAWSWVRQPPGEGLEWIGFISYSGITNYNPSLQGRVTISRDNSKNTLYLQMNSLRAEDTAVYYCARSLARTTAMDYWGEGTLVTVSSASTKGPSVFPLAPSSKSTSGGTAALGCLVKDYFPEPVTVSWNSGALTSGVHTFPAVLQSSGLYSLSSVVTVPSSSLGTQTYICNVNHKPSNTKVDKKVEPKSCDKTHTCPPCPAPELLGGPSVFLFPPKPKDTLYISRTPEVTCVVVDVSHEDPEVKFNWYVDGVEVHNAKTKPREEQYNSTYRVVSVLTVLHQDWLNGKEYKCKVSNKALPAPIEKTISKAKGQPREPQVYTLPPSRDELTKNQVSLTCLVKGFYPSDIAVEWESNGQPENNYKTTPPVLDSDGSFFLYSKLTVDKSRWQQGNKFSCSVMHEALHYHVTQKSLSLSP
light: DIQMTQSPSSLSASVGDSVTITCQASTDISSHLNWYQQKPGKAPELLIYYGSHLLSGVPSRFSGSGSGTDFTFTISSLEAEDAATYYCGQGNRLPYTFGQGTKVEIERTVAAPSVFIFPPSDEQLKSGTASVVCLLNNFYPREAKVQWKVDNALQSGNSQESVTEQDSKDSTYSLSSTLTLSKADYEKHKVYACEVTHQGLSSPVTKSFNRGEC
B4: Fv-4-F1119 (antibody, human IgG1, kappa)
heavy: QVQLQESGPGLVKPSETLSLTCAVSGHSISHDHAWSWVRQPPGEGLEWIGFISYSGITNYNPSLQGRVTISRDNSKNTLYLQMNSLRAEDTAVYYCARSLARTTAMDYWGEGTLVTVSSASTKGPSVFPLAPSSKSTSGGTAALGCLVKDYFPEPVTVSWNSGALTSGVHTFPAVLQSSGLYSLSSVVTVPSSSLGTQTYICNVNHKPSNTKVDKKVEPKSCDKTHTCPPCPAPELLGGPSVFLFPPKPKDVLYISRTPEVTCVVVDVSHEDPEVKFNWYVDGVEVHNAKTKPREEQYNSTYRVVSVLQPLHADWLNGKEYKCKVSNKALPAPIEKTISKAKGQPREPQVYTLPPSRDELTKNQVSLTCLVKGFYPSDIAVEWESNGQPENNYKTTPPVLDSDGSFFLYSKLTVDKSRWQQGNEFSCSVMHEALHYHVTQKSLSLSP
light: DIQMTQSPSSLSASVGDSVTITCQASTDISSHLNWYQQKPGKAPELLIYYGSHLLSGVPSRFSGSGSGTDFTFTISSLEAEDAATYYCGQGNRLPYTFGQGTKVEIERTVAAPSVFIFPPSDEQLKSGTASVVCLLNNFYPREAKVQWKVDNALQSGNSQESVTEQDSKDSTYSLSSTLTLSKADYEKHKVYACEVTHQGLSSPVTKSFNRGEC
B5: Fv-4-F1111 (antibody, human IgG1, kappa)
heavy: QVQLQESGPGLVKPSETLSLTCAVSGHSISHDHAWSWVRQPPGEGLEWIGFISYSGITNYNPSLQGRVTISRDNSKNTLYLQMNSLRAEDTAVYYCARSLARTTAMDYWGEGTLVTVSSASTKGPSVFPLAPSSKSTSGGTAALGCLVKDYFPEPVTVSWNSGALTSGVHTFPAVLQSSGLYSLSSVVTVPSSSLGTQTYICNVNHKPSNTKVDKKVEPKSCDKTHTCPPCPAPELLGGPSVFLFPPKPKDTLYISRTPEVTCVVVDVSHEDPEVKFNWYVDGVEVHNAKTKPREEQYNSTYRVVSVLTVLHQDWLNGKEYKCKVSNKALPAPIEKTISKAKGQPREPQVYTLPPSRDELTKNQVSLTCLVKGFYPSDIAVEWESNGQPENNYKTTPPVLDSDGSFFLYSKLTVDKSRWQQGNVFKCSVMHEALHYHVTQKSLSLSP
light: DIQMTQSPSSLSASVGDSVTITCQASTDISSHLNWYQQKPGKAPELLIYYGSHLLSGVPSRFSGSGSGTDFTFTISSLEAEDAATYYCGQGNRLPYTFGQGTKVEIERTVAAPSVFIFPPSDEQLKSGTASVVCLLNNFYPREAKVQWKVDNALQSGNSQESVTEQDSKDSTYSLSSTLTLSKADYEKHKVYACEVTHQGLSSPVTKSFNRGEC
B6: Fv-4-F1110 (antibody, human IgG1, kappa)
heavy: QVQLQESGPGLVKPSETLSLTCAVSGHSISHDHAWSWVRQPPGEGLEWIGFISYSGITNYNPSLQGRVTISRDNSKNTLYLQMNSLRAEDTAVYYCARSLARTTAMDYWGEGTLVTVSSASTKGPSVFPLAPSSKSTSGGTAALGCLVKDYFPEPVTVSWNSGALTSGVHTFPAVLQSSGLYSLSSVVTVPSSSLGTQTYICNVNHKPSNTKVDKKVEPKSCDKTHTCPPCPAPELLGGPSVFLFPPKPKDTLYISRTPEVTCVVVDVSHEDPEVKFNWYVDGVEVHNAKTKPREEQYNSTYRVVSVLTVLHQDWLNGKEYKCKVSNKALPAPIEKTISKAKGQPREPQVYTLPPSRDELTKNQVSLTCLVKGFYPSDIAVEWESNGQPENNYKTTPPVLDSDGSFFLYSKLTVDKSRWQQGNQFSCSVMHEALHYHVTQKSLSLSP
light: DIQMTQSPSSLSASVGDSVTITCQASTDISSHLNWYQQKPGKAPELLIYYGSHLLSGVPSRFSGSGSGTDFTFTISSLEAEDAATYYCGQGNRLPYTFGQGTKVEIERTVAAPSVFIFPPSDEQLKSGTASVVCLLNNFYPREAKVQWKVDNALQSGNSQESVTEQDSKDSTYSLSSTLTLSKADYEKHKVYACEVTHQGLSSPVTKSFNRGEC
B7: Fv-4-F1113 (antibody)
heavy: QVQLQESGPGLVKPSETLSLTCAVSGHSISHDHAWSWVRQPPGEGLEWIGFISYSGITNYNPSLQGRVTISRDNSKNTLYLQMNSLRAEDTAVYYCARSLARTTAMDYWGEGTLVTVSSASTKGPSVFPLAPSSKSTSGGTAALGCLVKDYFPEPVTVSWNSGALTSGVHTFPAVLQSSGLYSLSSVVTVPSSSLGTQTYICNVNHKPSNTKVDKKVEPKSCDKTHTCPPCPAPELLGGPSVFLFPPKPKDTLYISRTPEVTCVVVDVSHEDPEVKFNWYVDGVEVHNAKTKPREEQYNSTYRVVSVLTVLHQDWLNGKEYKCKVSNKALPAPIEKTISKAKGQPREPQVYTLPPSRDELTKNQVSLTCLVKGFYPSDIAVEWESNGQPENNYKTTPPVLDSDGSFFLYSKLTVDKSRWQQGNVFSCSVMHEALHYHVTQKDLSLSP
light: DIQMTQSPSSLSASVGDSVTITCQASTDISSHLNWYQQKPGKAPELLIYYGSHLLSGVPSRFSGSGSGTDFTFTISSLEAEDAATYYCGQGNRLPYTFGQGTKVEIERTVAAPSVFIFPPSDEQLKSGTASVVCLLNNFYPREAKVQWKVDNALQSGNSQESVTEQDSKDSTYSLSSTLTLSKADYEKHKVYACEVTHQGLSSPVTKSFNRGEC
B8: Fv-4-F1112 (antibody, human IgG1, kappa)
heavy: QVQLQESGPGLVKPSETLSLTCAVSGHSISHDHAWSWVRQPPGEGLEWIGFISYSGITNYNPSLQGRVTISRDNSKNTLYLQMNSLRAEDTAVYYCARSLARTTAMDYWGEGTLVTVSSASTKGPSVFPLAPSSKSTSGGTAALGCLVKDYFPEPVTVSWNSGALTSGVHTFPAVLQSSGLYSLSSVVTVPSSSLGTQTYICNVNHKPSNTKVDKKVEPKSCDKTHTCPPCPAPELLGGPSVFLFPPKPKDTLYISRTPEVTCVVVDVSHEDPEVKFNWYVDGVEVHNAKTKPREEQYNSTYRVVSVLTVLHQDWLNGKEYKCKVSNKALPAPIEKTISKAKGQPREPQVYTLPPSRDELTKNQVSLTCLVKGFYPSDIAVEWESNGQPENNYKTTPPVLDSDGSFFLYSKLTVDKSRWQQGNVFSCSVMHEALHYHVTKKSLSLSP
light: DIQMTQSPSSLSASVGDSVTITCQASTDISSHLNWYQQKPGKAPELLIYYGSHLLSGVPSRFSGSGSGTDFTFTISSLEAEDAATYYCGQGNRLPYTFGQGTKVEIERTVAAPSVFIFPPSDEQLKSGTASVVCLLNNFYPREAKVQWKVDNALQSGNSQESVTEQDSKDSTYSLSSTLTLSKADYEKHKVYACEVTHQGLSSPVTKSFNRGEC
B9: Fv-4-F1109 (antibody, human IgG1, kappa)
heavy: QVQLQESGPGLVKPSETLSLTCAVSGHSISHDHAWSWVRQPPGEGLEWIGFISYSGITNYNPSLQGRVTISRDNSKNTLYLQMNSLRAEDTAVYYCARSLARTTAMDYWGEGTLVTVSSASTKGPSVFPLAPSSKSTSGGTAALGCLVKDYFPEPVTVSWNSGALTSGVHTFPAVLQSSGLYSLSSVVTVPSSSLGTQTYICNVNHKPSNTKVDKKVEPKSCDKTHTCPPCPAPELLGGPSVFLFPPKPKDTLYISRTPEVTCVVVDVSHEDPEVKFNWYVDGVEVHNAKTKPREEQYNSTYRVVSVLTVLHQDWLNGKEYKCKVSNKALPAPIEKTISKAKGQPREPQVYTLPPSRDELTKNQVSLTCLVKGFYPSDIAVEWESNGQPENNYKTTPPVLDSDGSFFLYSKLTVDKSRWQQGNTFSCSVMHEALHYHVTQKSLSLSP
light: DIQMTQSPSSLSASVGDSVTITCQASTDISSHLNWYQQKPGKAPELLIYYGSHLLSGVPSRFSGSGSGTDFTFTISSLEAEDAATYYCGQGNRLPYTFGQGTKVEIERTVAAPSVFIFPPSDEQLKSGTASVVCLLNNFYPREAKVQWKVDNALQSGNSQESVTEQDSKDSTYSLSSTLTLSKADYEKHKVYACEVTHQGLSSPVTKSFNRGEC

The target of the experiment is T1, soluble human FcRn (human, UniProt P55899 24-297; P61769 21-119).
T1 construct: Heterodimer of alpha chain and beta2-microglobulin; also called hFcRn
T1 sequence (P55899 24-297 limits assumed, chain 1 of 2): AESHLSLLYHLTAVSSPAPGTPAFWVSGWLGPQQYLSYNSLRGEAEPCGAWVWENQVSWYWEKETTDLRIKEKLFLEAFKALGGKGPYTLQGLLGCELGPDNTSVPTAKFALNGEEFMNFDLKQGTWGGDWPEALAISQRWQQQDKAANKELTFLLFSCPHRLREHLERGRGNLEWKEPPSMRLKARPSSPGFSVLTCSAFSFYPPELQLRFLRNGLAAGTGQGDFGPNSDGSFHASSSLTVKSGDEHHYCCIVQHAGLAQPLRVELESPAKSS
T1 sequence (P61769 21-119 limits assumed, chain 2 of 2): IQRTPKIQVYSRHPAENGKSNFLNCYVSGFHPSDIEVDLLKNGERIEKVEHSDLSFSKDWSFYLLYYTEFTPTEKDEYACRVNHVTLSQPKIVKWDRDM
Nature of the experiment: SPR (Biacore), pH 7.0. A general note: Surface plasmon resonance follows binding to a sensor surface in real time, without labels.
The molecule B1 had a Kd of 120 nM.
On to B2, for which the Kd came out at 130 nM.
B3: the Kd amounted to 130 nM.
For B4 the value was 10 nM; for B5, 160 nM; for B6, 130 nM.
In turn, B7 had a Kd of 120 nM.
Regarding B8, the Kd was determined as 120 nM.
Molecule B9 registered a Kd of 130 nM.
